Experimental data taken from paper PMC10393062.

Experiments:
[1] = molecular target: Venus-iLID-CaaX; experiment: light-induced recruitment of a cytosolic prey to a plasma membrane bait (live-cell spinning disk microscopy); HeLa cells; 1 pulse of 440 nm laser light at 20% for 1 s; change in cytosolic intensity of the prey in percent, measured 20 s after stimulation
[2] = molecular target: Lck-mTurquoise2-iLID; experiment: as above
[3] = molecular target: Venus-iLID-CaaX; experiment: light-induced recruitment of a cytosolic prey to a plasma membrane bait (live-cell confocal microscopy); HeLa cells, 37°C; photo-activation with 488 nm laser light (1% intensity) every 2.5 s for 2 min; normalized membrane to cytosol intensity ratio of the prey; t½ ON and OFF from a mono-exponential fit to the mean

mean change in cytosolic intensity (recruitment efficiency) [1]: 25.5%
median change in cytosolic intensity (recruitment efficiency) [2]: 36.7%
t½ OFF of recruitment (after 488 nm light) [3]: 20.3 s
t½ ON of recruitment (488 nm light) [3]: 5.14 s
Substance: SspB-mScarlet-I (from UniProt P0AFZ3 1-165) (natural protein)
